Data taken from PMC10140343.

Target: recombinant ScCD8α extracellular IgSF V domain (Ser20-Met163) (small-spotted catshark (Scyliorhinus canicula))
Test: native gel or EMSA; PAGE under non-reducing conditions of purified recombinant ScCD8α; Tris-Gly buffer pH 4.4, ice-water bath, 120 V, 2 h; band of approx. 32 kDa against approx. 16 kDa in reducing SDS-PAGE

- stoichiometry N: 2
Substance: recombinant ScCD8α extracellular IgSF V domain (Ser20-Met163) (domain or fragment)
